Experimental data taken from patent US20240076389A1 (NATIONAL RESEARCH COUNCIL OF CANADA, published 2024).

T1: AXL fragment # 7 (AXL amino acids 135-335, IgL2+FN III-1)
T1 chain: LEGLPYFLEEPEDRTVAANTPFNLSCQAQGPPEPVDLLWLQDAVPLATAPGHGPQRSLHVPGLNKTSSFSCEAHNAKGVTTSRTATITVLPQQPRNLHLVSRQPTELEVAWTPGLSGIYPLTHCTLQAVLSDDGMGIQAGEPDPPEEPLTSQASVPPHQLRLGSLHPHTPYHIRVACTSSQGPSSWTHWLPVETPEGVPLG

T2: AXL fragment # 1 (AXL amino acids 135-226, IgL2)
T2 chain: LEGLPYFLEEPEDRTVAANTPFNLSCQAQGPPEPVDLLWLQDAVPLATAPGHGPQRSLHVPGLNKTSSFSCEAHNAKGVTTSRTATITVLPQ

T3: AXL fragment # 3 (AXL amino acids 26-138, IgL1)
T3 chain: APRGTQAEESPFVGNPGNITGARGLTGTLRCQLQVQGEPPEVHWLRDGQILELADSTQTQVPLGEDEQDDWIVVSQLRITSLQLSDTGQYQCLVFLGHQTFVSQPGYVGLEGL

T4: recombinant human AXL extracellular domain, C-terminally His8-tagged (rhAXL-ECD) (human, UniProt P30530 26-451)
T4 construct: Made in CHO cells; also called (rh)AXL-ECD His8; human AXL ECD
T4 sequence: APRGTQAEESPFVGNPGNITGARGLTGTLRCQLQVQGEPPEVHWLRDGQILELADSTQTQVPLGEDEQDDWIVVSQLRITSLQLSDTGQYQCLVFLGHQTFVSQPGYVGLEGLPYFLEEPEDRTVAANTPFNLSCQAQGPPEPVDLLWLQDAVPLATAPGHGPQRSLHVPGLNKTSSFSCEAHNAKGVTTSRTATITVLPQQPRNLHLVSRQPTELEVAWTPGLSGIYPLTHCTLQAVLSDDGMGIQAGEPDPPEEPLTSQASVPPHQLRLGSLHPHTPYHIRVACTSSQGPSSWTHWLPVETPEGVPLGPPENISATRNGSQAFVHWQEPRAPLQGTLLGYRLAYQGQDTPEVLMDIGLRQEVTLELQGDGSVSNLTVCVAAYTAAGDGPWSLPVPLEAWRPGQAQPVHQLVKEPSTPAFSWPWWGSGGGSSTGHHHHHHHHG

T5: huTyro3-ECD displayed on yeast (human, UniProt Q06418 41-429)
T5 construct: extracellular domain
T5 sequence (looked up): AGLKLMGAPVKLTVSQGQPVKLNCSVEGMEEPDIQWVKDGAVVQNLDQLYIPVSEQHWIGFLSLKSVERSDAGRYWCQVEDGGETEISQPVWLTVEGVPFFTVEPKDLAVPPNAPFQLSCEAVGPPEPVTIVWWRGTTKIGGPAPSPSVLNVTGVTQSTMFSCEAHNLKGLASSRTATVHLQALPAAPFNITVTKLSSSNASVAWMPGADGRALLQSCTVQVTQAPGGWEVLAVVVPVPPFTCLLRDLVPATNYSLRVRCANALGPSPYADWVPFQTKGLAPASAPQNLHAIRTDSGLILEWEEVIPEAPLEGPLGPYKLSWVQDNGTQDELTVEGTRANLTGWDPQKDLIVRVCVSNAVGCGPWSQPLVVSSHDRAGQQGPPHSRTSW


Experiments:
[1] = molecular target: T1, AXL fragment # 7 (AXL amino acids …); assay: yeast surface display of hAXL fragments (Aga2-HA-(hAXL)-MYC), whole yeast cell ELISA, signal normalised to anti-MYC
Text: (§1) Epitope mapping. […] The YSD vector (pPNL6) was from The Pacific Northwest National Laboratory, USA.

[2] = molecular target: T2, AXL fragment # 1 (AXL amino acids …); assay: as above
Text: as §1

[3] = molecular target: T3, AXL fragment # 3 (AXL amino acids …); assay: yeast surface display of hAXL fragments, whole yeast cell ELISA, signal normalised to anti-MYC
Text: as §1

[4] = molecular target: T4, recombinant human AXL extracellular …; assay: ELISA on coated AXL ECD (100 ng/well), VHH-Fc, HRP-protein A
Description: ELISA. ELISAs against human, cyno and mouse AXL ECDs were conducted by immobilizing 100 ng of each protein in wells of Nunc MaxiSorp microplates overnight. Human AXL (aa 1-451) and cyno AXL (aa 1-449) were produced recombinantly as described in Example 10. Mouse AXL was purchased from Sino (cat. 51026-M08H). The next day, plates were blocked with 5% (w/v) dried milk in PBS. Murine mAbs (either hybridoma- or recombinantly-produced) or VHH-Fcs were diluted in PBS containing 1% BSA and 0.1% Tween-20 and added to wells for 2 hours at room temperature. Wells were washed 5× with PBS containing 0.1% Tween-20, then HRP-labeled protein A (diluted 1:1000 in PBS containing 1% BSA and 0.1% Tween™-20) was added to wells for 1 hour at room temperature. Wells were washed again 5× with PBS/0.1% Tween-20 and developed using TMB substrate. Absorbance was measured at 450 nm. As a positive control for mouse AXL binding, a commercial anti-mouse AXL mAb (clone 175128, R&D Systems MAB8541, rat IgG2A) was used and detected with donkey […] secondary antibody.

[5] = molecular target: T6, cyAXL-ECD displayed on yeast; assay: yeast surface display ELISA, non-denatured yeast, goat anti-human F(ab')2-HRP
T6 construct: extracellular domain; 'cy' read as cynomolgus

[6] = molecular target: T5, huTyro3-ECD displayed on yeast; assay: as above
[7] = molecular target: T4, recombinant human AXL extracellular …; assay: SPR Biacore T200, mAb captured on anti-Fc, AXL ECD flowed, single-cycle kinetics
Description: (§2) Surface plasmon resonance. For murine mAbs, binding to human and cynomolgus AXL ECD was assessed using a Biacore T200 instrument. Briefly, either anti-mouse or anti-human Fc antibody was immobilized on a research-grade CM5 series S sensor chip using amine coupling in acetate buffer. Murine or recombinant chimeric murine-human mAbs (mouse VH/VL; human constant regions) were captured, then recombinant human or cyno AXL ECD was flowed over the surface at different concentration ranges (0.1-500 nM) depending on the antibody. The running buffer was PBS/Tween-20 and the flow rate 100 uL/min. All binding studies were performed at 25° C. Surfaces were regenerated using 10 mM glycine, pH 1.5.

[8] = molecular target: T7, recombinant cynomolgus AXL extracellular domain (cynomolgus); assay: as above
T7 construct: range 1-449; also called Cyno AXL; cyno AXL ECD
Description: as §2

| Binder | binding result [1] | binding result [2] | binding result [3] | EC50 [4] | yeast ELISA signal normalized to myc expression level [5] | yeast ELISA signal normalized to myc expression level [6] | Kd [7] | kon [7] | Kd [8] | koff [8] | kon [8] |
| --- | --- | --- | --- | --- | --- | --- | --- | --- | --- | --- | --- |
| F111-3C8 (antibody, V domains shown, also called F111-3C8-2) VH: QVQLQQPGAELGKPGTSVKLSCKASGYTFTSYWMHWVKRVPGQGLEWIGNINPNSTSADYNEKFKRKATLTVDKSSSTAYMQLSTLTSEDSAVYYCTRPLMGPYWYFDVWGTGTTVTVSS VL: QIVLTQSPAIMSASPGEKVTISCSASSSVSYMYWYQQKPGSSPKPWIYRTSNLASGVPARFSGSGSGTSYSLTISSMEAEDAATYYCQQYHNYPPTFGGGTKLEIK | binds | binds | no binding | – | – | – | – | – | – | – | – |
| F111-5E9 (antibody, V domains shown, also called F111-5E9-2; mAb 5E9) VH: QIQLVQSGPELKKPGETVKISCKASGYTFTKYGMNWVKQAPGKGLKWMGWINTYTGEPTYADDFKGRFAFSLETSASTAYLQINNLTTEDMVTYFCAKGGYYSNPIYPMDYWGQGTSVTVSS VL: DIQMTQTTSSLSASLGDRVTISCRASQDINNYLNWYQQKPDGTVKLLIYYISRLHSGVPSRFSGSGSGTDYSLTISNLELEDVATYFCQQGNTLPFTFGSGTKLEIK | binds | binds | no binding | – | – | – | – | – | – | – | – |
| NRC-sdAb001-Fc (VHH-human IgG1 Fc fusion) (Fc fusion, VHH fused N-terminally to human IgG1 Fc, made in HEK293 cells; also called NRC-sdAb0001-Fc; NRC-sdAb001-hIgG1; not shown: human IgG1 Fc) QVKLEESGGGLVQAGGSLRLSCTASASISSFDIMGWYRQAPGKQRELVAAITTLDIANYRDSVKGRFTISRDNAKNTVYLQMDSLKPEDTARYHCAAFQSDQNYWGQGTQVTVSS | – | – | – | 1 nM | 0.824 | 0.017 | – | – | – | – | – |
| hFC-F107-10G1 (antibody, human IgG1, kappa, V domains shown, Chimeric mAb, human IgG1 / human kappa constant regions; also called mAb F107-10G1) VH: EVNLVESGGGVVKPGASLKLSCEASGFTFSNYGMSWVRQTSDKRLEWVASISGGGGRTYYLDNVKGRFIISRENAKNTLYLQMSSLKSEDTALFYCARGARASYFAMDYWGQGSSVTVSS VL: VIVMTQSHKFMSTSVGDRVSITCKASQDVTTAVAWYQQKPGQSPKLLIYWASTRHTGVPDRFTGSGSGTDYSLTISNVQTEDLAFYYCQQHFTTPLTFGAGTKLELKR | – | – | – | – | 1.14 | -0.023 | 0.5 nM | 1.1e+06 M⁻¹ s⁻¹ | 0.5 nM | 0.00043 s⁻¹ | 820000 M⁻¹ s⁻¹ |
